The text below walks through data of US11471462B2, “Compositions and methods for detecting and treating diabetes” (THE BROAD INSTITUTE, INC., priority 2016, dated 2022).

For this assay, the system named is SLC16A11. The assay is described as follows: SLC16A11 protein-protein interaction study (immunoprecipitation, quantitative mass spectrometry). Further details: species or system human. Particulars: putative SLC16A11^REF interaction partners; immunoprecipitation from HEK293T cells vs empty vector control; Blandt-Altman. An excerpt: Alternatively, these variants may result in reduced transport because they disrupt protein-protein interactions responsible for correct SLC16A11 function. To explore this possibility, SLC16A11 was immunoprecipitated from HEK293T cells expressing either REF or T2D risk SLC16A11-V5 or empty vector control and quantitative mass spectrometry was used to define the SLC16A11 interactome.
Another mechanism through which the variants could affect activity is through disruption of protein-protein interactions. To explore this possibility, quantitative mass spectrometry-based protein-protein interaction studies were performed to define the SLC16A11 interactome and evaluate if the T2D risk coding variants alter any interactions.
Beads were then washed once with lysis buffer and three times with wash buffer. After the last wash, residual wash buffer was removed, 10 μL fresh wash buffer was added, and beads were stored at −80° C. until analysis by the Proteomics Platform at the Broad Institute, as detailed in the “Proteomics Methods for SLC16A11 Protein Interaction Studies” below.
The beads from immunopurification were washed once with IP lysis buffer, then three times with PBS, the three different lysates of each replicate were resuspended in 90 uL digestion buffer (2M Urea, 50 mM Tris HCl), 2 ug of sequencing grade trypsin added, 1 hour shaking at 700 rpm. The supernatant was removed and placed in a fresh tube. The beads were then washed twice with 50 uL digestion buffer and combined with the supernatant. The combined supernatants were reduced (2 uL 500 mM DTT, 30 minutes, RT), alkylated (4 uL 500 mM IAA, 45 minutes, dark) and a longer overnight digestion performed: 2 ug (4 uL) trypsin, shake o/n, The samples were then quenched with 20 uL 10% FA and desalted on 10 mg SepPak columns.
Desalted peptides were labelled with iTRAQ reagents according to the manufacturer's instructions (AB Sciex, Foster City, Calif.). Peptides were dissolved in 30 μl of 0.5 M TEAB pH 8.5 solution and labeling reagent was added in 70 ul of ethanol. After 1 h incubation the reaction was stopped with 50 mM Tris/HCl pH 7.5. Differentially labelled peptides were mixed and subsequently desalted on 10 mg SepPak columns.
Reconstituted peptides were separated on an online nanoflow EASY-nLC 1000 UHPLC system (Thermo Fisher Scientific) and analyzed on a benchtop Orbitrap Q Exactive Plus mass spectrometer (Thermo Fisher Scientific). The peptide samples were injected onto a capillary column (Picofrit with 10 μm tip opening/75 μm diameter, New Objective, PF360-75-10-N-5) packed in-house with 20 cm C18 silica material (1.9 μm ReproSil-Pur C18-AQ medium, Dr. Maisch GmbH, r119.aq). The UHPLC setup was connected with a custom-fit microadapting tee (360 μm, IDEX Health & Science, UH-753), and capillary columns were heated to 50° C. in column heater sleeves (Phoenix-ST) to reduce backpressure during UHPLC separation. Injected peptides were separated at a flow rate of 200 nL/min with a linear 80 min gradient from 100% solvent A (3% acetonitrile, 0.1% formic acid) to 30% solvent B (90% acetonitrile, 0.1% formic acid), followed by a linear 6 min gradient from 30% solvent B to 90% solvent B. Each sample was run for 120 min, including sample loading and column equilibration times. The Q Exactive instrument was operated in the data-dependent mode acquiring HCD MS/MS scans (R=17,500) after each MS1 scan (R=70,000) on the 12 top most abundant ions using an MS1 ion target of 3×10^6 ions and an MS2 target of 5×10^4 ions. The maximum ion time utilized for the MS/MS scans was 120 ms; the HCD-normalized collision energy was set to 27; the dynamic exclusion time was set to 20 s, and the peptide match and isotope exclusion functions were enabled.
All mass spectra were processed using the Spectrum Mill software package v6.0 pre-release (Agilent Technologies) which includes modules developed by us for iTRAQ-based quantification. […]

B1: MAGED1 (protein)
chain: MAQKMDCGAGLLGFQNPDACRAVCHPLPQPPASTLPLSAFPTLCDPPYSQLRDPPAVLSCYCTPLGASPAPAEASVEDSALLMQTLMEAIQISEAPPTNQATAAASPQSSQPPTANEMADIQVSAAAARPKSAFKVQNATTKGPNGVYDFSQAHNAKDVPNTQPKAAFKSQNATPKGPNAAYDFSQAATTGELAANKSEMAFKAQNATTKVGPNATYNFSQSLNANDLANSRPKTPFKAWNDTTKAPTADTQTQNVNQAKMATSQADIETDPGISEPDGATAQTSADGSQAQNLESRTIIRGKRTRKINNLNVEENSSGDQRRAPLAAGTWRSAPVPVTTQNPPGAPPNVLWQTPLAWQNPSGWQNQTARQTPPARQSPPARQTPPAWQNPVAWQNPVIWPNPVIWQNPVIWPNPIVWPGPVVWPNPLAWQNPPGWQTPPGWQTPPGWQGPPDWQGPPDWPLPPDWPLPPDWPLPTDWPLPPDWIPADWPIPPDWQNLRPSPNLRPSPNSRASQNPGAAQPRDVALLQERANKLVKYLMLKDYTKVPIKRSEMLRDIIREYTDVYPEIIERACFVLEKKFGIQLKEIDKEEHLYILISTPESLAGILGTTKDTPKLGLLLVILGVIFMNGNRASEAVLWEALRKMGLRPGVRHPLLGDLRKLLTYEFVKQKYLDYRRVPNSNPPEYEFLWGLRSYHETSKMKVLRFIAEVQKRDPRDWTAQFMEAADEALDALDAAAAEAEARAEARTRMGIGDEAVSGPWSWDDIEFELLTWDEEGDFGDPWSRIPFTFWARYHQNARSRFPQTFAGPIIGPGGTASANFAANFGAIGFFWVE
For B1, the “BA log fold change” value is 1.09.

B2: XPO5 (protein)
chain: AMDQVNALCEQLVKAVTVMMDPNSTQRYRLEALKFCEEFKEKCPICVPCGLRLAEKTQVAIVRHFGLQILEHVVKFRWNGMSRLEKVYLKNSVMELIANGTLNILEEENHIKDALSRIVVEMIKREWPQHWPDMLIELDTLSKQGETQTELVMFILLRLAEDVVTFQTLPPQRRRDIQQTLTQNMERIFSFLLNTLQENVNKYQQVKTDTSQESKAQANCRVGVAALNTLAGYIDWVSMSHITAENCKLLEILCLLLNEQELQLGAAECLLIAVSRKGKLEDRKPLMVLFGDVAMHYILSAAQTADGGGLVEKHYVFLKRLCQVLCALGNQLCALLGADSDVETPSNFGKYLESFLAFTTHPSQFLRSSTQMTWGALFRHEILSRDPLLLAIIPKYLRASMTNLVKMGFPSKTDSPSCEYSRFDFDSDEDFNAFFNSSRAQQGEVMRLACRLDPKTSFQMAGEWLKYQLSTFLDAGSVNSCSAVGTGEGSLCSVFSPSFVQWEAMTLFLESVITQMFRTLNREEIPVNDGIELLQMVLNFDTKDPLILSCVLTNVSALFPFVTYRPEFLPQVFSKLFSSVTFETVEESKAPRTRAVRNVRRHACSSIIKMCRDYPQLVLPNFDMLYNHVKQLLSNELLLTQMEKCALMEALVLISNQFKNYERQKVFLEELMAPVASIWLSQDMHRVLSDVDAFIAYVGTDQKSCDPGLEDPCGLNRARMSFCVYSILGVVKRTCWPTDLEEAKAGGFVVGYTSSGNPIFRNPCTEQILKLLDNLLALIRTHNTLYAPEMLAKMAEPFTKALDMLDAEKSAILGLPQPLLELNDSPVFKTVLERMQRFFSTLYENCFHILGKAGPSMQQDFYTVEDLATQLLSSAFVNLNNIPDYRLRPMLRVFVKPLVLFCPPEHYEALVSPILGPLFTYLHMRLSQKWQVINQRSLLCGEDEAADENPESQEMLEEQLVRMLTREVMDLITVCCVSKKGADHSSAPPADGDDEEMMATEVTPSAMAELTDLGKCLMKHEDVCTALLITAFNSLAWKDTLSCQRTTSQLCWPLLKQVLSGTLLADAVTWLFTSVLKGLQMHGQHDGCMASLVHLAFQIYEALRPRYLEIRAVMEQIPEIQKDSLDQFDCKLLNPSLQKVADKRRKDQFKRLIAGCIGKPLGEQFRKEVHIKNLPSLFKKTKPMLETEVLDNDGGGLATIFEP
B2: the “BA log fold change” value worked out at 1.14.

B3: ADCK4 (protein)
chain: MWLKVGGLLRGTGGQLGQTVGWPCGALGPGPHRWGPCGGSWAQKFYQDGPGRGLGEEDIRRAREARPRKTPRPQLSDRSRERKVPASRISRLANFGGLAVGLGLGVLAEMAKKSMPGGRLQSEGGSGLDSSPFLSEANAERIVQTLCTVRGAALKVGQMLSIQDNSFISPQLQHIFERVRQSADFMPRWQMLRVLEEELGRDWQAKVASLEEVPFAAASIGQVHQGLLRDGTEVAVKIQYPGIAQSIQSDVQNLLAVLKMSAALPAGLFAEQSLQALQQELAWECDYRREAACAQNFRQLLANDPFFRVPAVVKELCTTRVLGMELAGGVPLDQCQGLSQDLRNQICFQLLTLCLRELFEFRFMQTDPNWANFLYDASSHQVTLLDFGASREFGTEFTDHYIEVVKAAADGDRDCVLQKSRDLKFLTGFETKAFSDAHVEAVMILGEPFATQGPYDFGSGETARRIQDLIPVLLRHRLCPPPEETYALHRKLAGAFLACAHLRAHIACRDLFQDTYHRYWASRQPDAATAGSLPTKGDSWVDPS
Regarding B3, the “BA log fold change” value came to 1.11.

B4: PHGDH (protein)
chain: AFANLRKVLISDSLDPCCRKILQDGGLQVVEKQNLSKEELIAELQDCEGLIVRSATKVTADVINAAEKLQVVGRAGTGVDNVDLEAATRKGILVMNTPNGNSLSAAELTCGMIMCLARQIPQATASMKDGKWERKKFMGTELNGKTLGILGLGRIGREVATRMQSFGMKTIGYDPIISPEVSASFGVQQLPLEEIWPLCDFITVHTPLLPSTTGLLNDNTFAQCKKGVRVVNCARGGIVDEGALLRALQSGQCAGAALDVFTEEPPRDRALVDHENVISCPHLGASTKEAQSRCGEEIAVQFVDMVKGKSLTGVVNAQALTSAFSPHTKPWIGLAEALGTLMRAWAGSPKGTIQVITQGTSLKNAGNCLSPAVIVGLLKEASKQADVNLVNAKLLVKEAGLNVTTSHSPAAPGEQGFGECLLAVALAGAPYQAVGLVQGTTPVLQGLNGAVFRPEVPLRRDLPLLLFRTQTSDPAMLPTMIGLLAEAGVRLLSYQTSLVSDGETWHVMGISSLLPSLEAWKQHVTEAFQFHF
With B4, the “BA log fold change” value was determined as 1.11.

B5: AUP1 (protein)
chain: MELPSGPGPERLFDSHRLPGDCFLLLVLLLYAPVGFCLLVLRLFLGIHVFLVSCALPDSVLRRFVVRTMCAVLGLVARQEDSGLRDHSVRVLISNHVTPFDHNIVNLLTTCSTPLLNSPPSFVCWSRGFMEMNGRGELVESLKRFCASTRLPPTPLLLFPEEEATNGREGLLRFSSWPFSIQDVVQPLTLQVQRPLVSVTVSDASWVSELLWSLFVPFTVYQVRWLRPVHRQLGEANEEFALRVQQLVAKELGQTGTRLTPADKAEHMKRQRHPRLRPQSAQSSFPPSPGPSPDVQLATLAQRVKEVLPHVPLGVIQRDLAKTGCVDLTITNLLEGAVAFMPEDITKGTQSLPTASASKFPSSGPVTPQPTALTFAKSSWARQESLQERKQALYEYARRRFTERRAQEAD
B5: the “BA log fold change” value turned out to be 1.10.

B6: TECR (protein)
chain: MKHYEVEILDAKTREKLCFLDKVEPHATIAEIKNLFTKTHPQWYPARQSLRLDPKGKSLKDEDVLQKLPVGTTATLYFRDLGAQISWVTVFLTEYAGPLFIYLLFYFRVPFIYGHKYDFTSSRHTVVHLACICHSFHYIKRLLETLFVHRFSHGTMPLRNIFKNCTYYWGFAAWMAYYINHPLYTPPTYGAQQVKLALAIFVICQLGNFSIHMALRDLRPAGSKTRKIPYPTKNPFTWLFLLVSCPNYTYEVGSWIGFAIMTQCLPVALFSLVGFTQMTIWAKGKHRSYLKEFRDYPPLRMPIIPFLL
Take B6: the “BA log fold change” value turned out to be 1.10.

B7: VDAC2 (protein)
chain: MSWCNELRLPALKQHSIGRGLESHITMCIPPSYADLGKAARDIFNKGFGFGLVKLDVKTKSCSGVEFSTSGSSNTDTGKVTGTLETKYKWCEYGLTFTEKWNTDNTLGTEIAIEDQICQGLKLTFDTTFSPNTGKKSGKIKSSYKRECINLGCDVDFDFAGPAIHGSAVFGYEGWLAGYQMTFDSAKSKLTRNNFAVGYRTGDFQLHTNVNDGTEFGGSIYQKVCEDLDTSVNLAWTSGTNCTRFGIAAKYQLDPTASISAKVNNSSLIGVGYTQTLRPGVKLTLSALVDGKSINAGGHKVGLALELEA
Regarding B7, the “BA log fold change” value stood at 1.14.
